One assay concerns monkey PTK7 protein. In words: Relative binding activity to monkey PTK7 by ELISA. The method, then:
(§1) Human PTK7 protein (Catalog No. PT7-H52H3, Acrobiosystems), monkey PTK7 protein (Catalog No. PT7-C52H3, Acrobiosystems), and murine PTK7 protein (Catalog No. PT7-M52H3, Acrobiosystems) were incubated at 4° C. overnight and immobilized onto a 96-well plate. The plate was then blocked by incubating at 37° C. with 1% BSA in PBS for 1 h. After blocking, the plate was washed 3 times with PBST (PBS containing 0.05% Tween 20). Serial dilutions of anti-PTK7 antibody as prepared in Example 2 of the present disclosure was prepared in a binding buffer (PBS containing 0.05% Tween20 and 0.5% BSA) and incubated with the immobilized proteins at 37° C. for 1 h. After binding, the plate was washed 3 times with PBST, incubated with peroxidase-labeled donkey anti-human IgG (Jackson ImmunoResearch) diluted at 1/15,000 in the binding buffer at 37° C. for 1 h, washed again, developed with TMB and terminated with 1M H2SO4. The absorbance at 450 nm-620 nm was measured.
A general note: ELISA stands for enzyme-linked immunosorbent assay.

The next assay addresses T1, Human PTK7 protein (Homo sapiens, UniProt Q13308).
T1 construct: purchased Acrobiosystems PT7-H52H3
T1 sequence (Q13308 31-1070): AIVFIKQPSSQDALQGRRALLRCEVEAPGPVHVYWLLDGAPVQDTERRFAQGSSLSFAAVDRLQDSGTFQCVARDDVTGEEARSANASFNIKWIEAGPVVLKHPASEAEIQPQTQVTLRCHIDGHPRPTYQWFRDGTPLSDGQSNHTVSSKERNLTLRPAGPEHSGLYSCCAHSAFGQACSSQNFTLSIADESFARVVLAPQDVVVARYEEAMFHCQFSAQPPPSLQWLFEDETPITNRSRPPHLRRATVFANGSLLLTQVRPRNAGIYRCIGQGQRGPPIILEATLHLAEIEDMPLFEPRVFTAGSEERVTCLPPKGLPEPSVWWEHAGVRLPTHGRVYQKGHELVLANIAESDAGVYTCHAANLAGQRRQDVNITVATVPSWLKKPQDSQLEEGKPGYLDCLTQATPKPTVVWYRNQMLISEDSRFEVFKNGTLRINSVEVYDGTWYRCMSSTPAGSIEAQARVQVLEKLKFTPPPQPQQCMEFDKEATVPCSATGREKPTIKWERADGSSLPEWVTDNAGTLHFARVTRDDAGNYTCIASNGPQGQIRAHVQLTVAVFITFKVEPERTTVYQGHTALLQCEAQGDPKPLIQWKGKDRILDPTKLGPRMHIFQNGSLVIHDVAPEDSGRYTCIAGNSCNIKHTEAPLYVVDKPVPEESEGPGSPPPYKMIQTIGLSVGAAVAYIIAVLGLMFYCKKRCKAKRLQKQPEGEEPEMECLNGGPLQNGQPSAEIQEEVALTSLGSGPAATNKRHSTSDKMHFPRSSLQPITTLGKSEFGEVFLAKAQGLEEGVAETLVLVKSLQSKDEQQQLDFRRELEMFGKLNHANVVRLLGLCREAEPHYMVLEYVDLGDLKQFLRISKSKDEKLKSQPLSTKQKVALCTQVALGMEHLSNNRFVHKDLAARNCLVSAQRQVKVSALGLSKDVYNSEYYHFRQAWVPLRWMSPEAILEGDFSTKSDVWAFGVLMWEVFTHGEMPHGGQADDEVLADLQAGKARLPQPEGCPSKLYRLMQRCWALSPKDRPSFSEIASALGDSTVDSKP
Put plainly: Relative binding activity to human PTK7 by ELISA. The method, then: as §1

The next assay concerns the target T2, murine PTK7 protein (Mus musculus, UniProt Q8BKG3).
T2 construct: purchased Acrobiosystems PT7-M52H3
T2 sequence (Q8BKG3 23-1062): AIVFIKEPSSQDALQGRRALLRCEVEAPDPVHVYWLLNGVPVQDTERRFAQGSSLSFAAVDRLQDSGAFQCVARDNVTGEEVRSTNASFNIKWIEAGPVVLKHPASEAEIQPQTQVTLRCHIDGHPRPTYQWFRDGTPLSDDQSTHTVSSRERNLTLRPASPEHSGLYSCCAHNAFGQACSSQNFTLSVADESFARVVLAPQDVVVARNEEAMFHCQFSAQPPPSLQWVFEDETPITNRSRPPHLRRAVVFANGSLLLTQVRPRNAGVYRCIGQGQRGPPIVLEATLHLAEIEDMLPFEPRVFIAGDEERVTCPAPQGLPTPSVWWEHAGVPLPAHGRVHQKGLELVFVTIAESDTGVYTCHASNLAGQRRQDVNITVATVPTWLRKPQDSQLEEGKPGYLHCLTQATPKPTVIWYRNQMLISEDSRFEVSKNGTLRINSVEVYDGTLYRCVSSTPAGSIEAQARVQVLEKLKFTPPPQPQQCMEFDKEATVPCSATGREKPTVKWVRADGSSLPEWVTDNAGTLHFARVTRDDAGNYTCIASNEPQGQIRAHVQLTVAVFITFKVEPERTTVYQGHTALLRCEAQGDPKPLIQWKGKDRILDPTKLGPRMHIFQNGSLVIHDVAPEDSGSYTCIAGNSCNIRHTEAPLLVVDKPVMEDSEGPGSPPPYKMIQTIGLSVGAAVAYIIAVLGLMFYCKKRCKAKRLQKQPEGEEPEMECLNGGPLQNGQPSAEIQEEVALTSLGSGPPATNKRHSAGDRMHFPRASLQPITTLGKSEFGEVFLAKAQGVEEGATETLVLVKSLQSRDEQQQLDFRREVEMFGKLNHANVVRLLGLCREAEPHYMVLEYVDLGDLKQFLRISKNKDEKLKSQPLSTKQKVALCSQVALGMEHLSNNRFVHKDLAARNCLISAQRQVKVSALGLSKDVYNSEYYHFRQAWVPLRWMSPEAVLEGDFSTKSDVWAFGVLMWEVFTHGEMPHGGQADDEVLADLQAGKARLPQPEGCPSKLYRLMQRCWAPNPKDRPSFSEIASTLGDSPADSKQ
In words: Relative binding activity to murine PTK7 by ELISA. To be noted: immobilized protein. The method, then: as §1

B1: ch13: human-murine chimeric PTK7 antibody, VH SEQ ID NO: 20, VL SEQ ID NO: 19 (antibody, V domains shown)
VH: QVQLQQSGAELVRPGVSVKISCKGSGYTFTDYGMHWLKQSHAKSLEWIGVISPYYGDVTYNQKFKGKATMTVDKSSSTAYMELARLTSEDSAIYYCARGMGYWGQGTSVTVSS
VL: DVQITQSPSYLAASPGETITINCRASQSISKYLAWYQEKPGKTNKLLIYSGSTLQSGIPSRFSGSGSGTDFTLTISSLEPEDFAMYYCQQHNEYPWTFGGGTKLEIK
Take B1: in the assay on monkey PTK7 protein (immobilized protein), the “binding to monkey PTK7 protein” value is “specifically bind”. Moreover, the “affinity compared with h6M24 (positive control antibody)” value in the assay with monkey PTK7 protein (monkey PTK7) and with Human PTK7 protein (human PTK7) was “significantly superior over that of h6M24” in each case. In addition, the “binding to human PTK7 protein” value with Human PTK7 protein (immobilized protein) is on record as “specifically bind”. Further, the “cross-reaction with mouse PTK7” value in the assay with murine PTK7 protein is “neither ch13 nor h6M24 antibodies cross-react”.

(Values after patent US12534541B2, “Anti-PTK7 antibody and uses thereof” (MABCARE THERAPEUTICS, priority 2023, dated 2026).)
